For one molecule, Half-blocking dose IC50, ACh-gated current, oocyte voltage clamp and Half-blocking dose IC50, NMDA receptor current, oocyte voltage clamp results are on record in patent US20150158921A1.

What all share (test): cell-based or functional assay
Assay [1] has as its target human α6/α3β2β3 nAChR (human), P17787.
Assay [2] addresses human α7 nAChR (human), P36544.
The target in assay [3] is rat NMDA receptor NR1-2b/NR2A (rat), P35439.
Assay [4] concerns the target rat NMDA receptor NR1-2b/NR2B (rat), P35439.
The target of assay [5] is rat NMDA receptor NR1-2b/NR2C (rat), P35439.
Assay [6] deals with rat NMDA receptor NR1-2b/NR2D (rat), P35439.
In assay [7] the target is rat α2β2 nAChR (rat), P12389.
Assay [8] has as its target rat α2β4 nAChR (rat), P12389.
Assay [9] has as its target rat α3β2 nAChR (rat), P04757.
Assay [10] concerns the target rat α3β4 nAChR (rat), P04757.
The target of assay [11] is rat α4β2 nAChR (rat), P09483.
Assay [12] deals with rat α4β4 nAChR (rat), P09483.
The target of assay [13] is rat α6/α3β2β3 nAChR (rat), P12390.
Assay [14] concerns the target rat α6/α3β4 nAChR (rat), P12392.
Assay [15] concerns the target rat α7 nAChR (rat), Q05941.

rat α3β2 nAChR (rat), P04757, sequence (P04757 26-499, chain 1 of 2): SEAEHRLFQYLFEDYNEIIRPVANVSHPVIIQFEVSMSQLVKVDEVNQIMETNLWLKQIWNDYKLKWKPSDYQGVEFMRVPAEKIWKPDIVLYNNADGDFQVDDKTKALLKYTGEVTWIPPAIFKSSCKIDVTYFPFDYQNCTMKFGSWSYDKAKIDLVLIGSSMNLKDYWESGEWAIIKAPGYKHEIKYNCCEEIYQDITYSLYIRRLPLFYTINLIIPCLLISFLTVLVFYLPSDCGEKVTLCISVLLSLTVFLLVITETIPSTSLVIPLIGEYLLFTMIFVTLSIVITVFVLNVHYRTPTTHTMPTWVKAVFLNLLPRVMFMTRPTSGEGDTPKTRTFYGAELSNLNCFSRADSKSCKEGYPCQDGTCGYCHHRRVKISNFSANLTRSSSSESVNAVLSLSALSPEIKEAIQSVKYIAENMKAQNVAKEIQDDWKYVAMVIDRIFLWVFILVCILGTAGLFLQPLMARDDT
rat α3β2 nAChR (rat), P04757, sequence (P12390 25-500, chain 2 of 2, further chain): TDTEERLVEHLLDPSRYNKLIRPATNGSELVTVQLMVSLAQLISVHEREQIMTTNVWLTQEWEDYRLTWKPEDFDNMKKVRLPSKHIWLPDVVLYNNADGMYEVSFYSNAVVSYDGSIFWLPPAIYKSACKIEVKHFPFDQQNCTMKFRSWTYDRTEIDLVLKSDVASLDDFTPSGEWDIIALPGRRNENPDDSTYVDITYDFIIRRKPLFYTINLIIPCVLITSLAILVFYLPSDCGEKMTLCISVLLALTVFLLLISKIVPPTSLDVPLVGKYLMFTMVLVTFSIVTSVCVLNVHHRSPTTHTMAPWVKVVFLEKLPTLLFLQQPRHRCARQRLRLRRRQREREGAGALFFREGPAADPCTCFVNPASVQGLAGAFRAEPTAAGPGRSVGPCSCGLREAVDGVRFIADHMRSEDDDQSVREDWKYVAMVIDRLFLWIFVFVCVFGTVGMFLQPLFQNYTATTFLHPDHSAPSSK
rat α3β4 nAChR (rat), P04757, sequence (P04757 26-499, chain 1 of 2): as the sequence (P04757 26-499, chain 1 of 2) above
rat α3β4 nAChR (rat), P04757, sequence (P12392 21-495, chain 2 of 2, further chain): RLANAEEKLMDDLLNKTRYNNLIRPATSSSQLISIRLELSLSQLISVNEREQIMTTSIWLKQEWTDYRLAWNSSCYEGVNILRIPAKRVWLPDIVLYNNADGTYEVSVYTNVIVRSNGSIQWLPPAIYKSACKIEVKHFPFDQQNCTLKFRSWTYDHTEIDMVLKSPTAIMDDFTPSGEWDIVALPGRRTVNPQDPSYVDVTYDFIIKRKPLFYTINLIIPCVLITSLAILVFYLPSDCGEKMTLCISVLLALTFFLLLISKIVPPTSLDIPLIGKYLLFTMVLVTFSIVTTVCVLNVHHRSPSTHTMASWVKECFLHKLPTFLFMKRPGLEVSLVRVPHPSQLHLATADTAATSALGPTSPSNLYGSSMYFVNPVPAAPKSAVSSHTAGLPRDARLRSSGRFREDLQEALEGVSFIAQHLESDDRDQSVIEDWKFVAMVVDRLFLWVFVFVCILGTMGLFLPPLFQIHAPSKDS
rat α2β2 nAChR (rat), P12389, sequence (P12389 28-511, chain 1 of 2): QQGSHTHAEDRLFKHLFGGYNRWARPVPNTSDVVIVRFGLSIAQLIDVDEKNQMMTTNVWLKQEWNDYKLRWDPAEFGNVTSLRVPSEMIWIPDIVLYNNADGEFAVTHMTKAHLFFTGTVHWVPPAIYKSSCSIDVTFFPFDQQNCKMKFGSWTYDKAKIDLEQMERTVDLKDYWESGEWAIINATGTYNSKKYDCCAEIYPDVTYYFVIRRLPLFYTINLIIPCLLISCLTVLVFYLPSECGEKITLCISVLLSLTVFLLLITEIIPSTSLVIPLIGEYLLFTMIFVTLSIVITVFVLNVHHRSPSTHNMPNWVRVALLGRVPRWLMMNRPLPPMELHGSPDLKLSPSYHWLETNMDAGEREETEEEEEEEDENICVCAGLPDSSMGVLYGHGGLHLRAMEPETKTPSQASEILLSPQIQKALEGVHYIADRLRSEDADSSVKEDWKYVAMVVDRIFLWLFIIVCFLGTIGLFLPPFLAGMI
rat α2β2 nAChR (rat), P12389, sequence (P12390 25-500, chain 2 of 2, further chain): as the sequence (P12390 25-500, chain 2 of 2, further chain) above
rat α2β4 nAChR (rat), P12389, sequence (P12389 28-511, chain 1 of 2): as the sequence (P12389 28-511, chain 1 of 2) above
rat α2β4 nAChR (rat), P12389, sequence (P12392 21-495, chain 2 of 2, further chain): as the sequence (P12392 21-495, chain 2 of 2, further chain) above
human α6/α3β2β3 nAChR (human), P17787, sequence (P17787 26-502, chain 1 of 2): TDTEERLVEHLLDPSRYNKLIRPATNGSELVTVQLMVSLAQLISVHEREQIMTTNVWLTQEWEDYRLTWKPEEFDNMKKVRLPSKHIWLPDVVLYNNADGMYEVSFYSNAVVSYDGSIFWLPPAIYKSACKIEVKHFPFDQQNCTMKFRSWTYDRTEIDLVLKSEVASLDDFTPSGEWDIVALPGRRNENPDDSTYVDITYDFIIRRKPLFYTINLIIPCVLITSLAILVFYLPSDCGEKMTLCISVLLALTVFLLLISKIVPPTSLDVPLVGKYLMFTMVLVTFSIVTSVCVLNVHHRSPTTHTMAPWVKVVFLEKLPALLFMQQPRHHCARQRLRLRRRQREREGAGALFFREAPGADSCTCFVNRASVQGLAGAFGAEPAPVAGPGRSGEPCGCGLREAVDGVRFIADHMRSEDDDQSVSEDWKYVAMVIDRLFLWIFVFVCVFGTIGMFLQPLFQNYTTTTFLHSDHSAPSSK
human α6/α3β2β3 nAChR (human), P17787, sequence (Q05901 22-458, chain 2 of 2, further chain): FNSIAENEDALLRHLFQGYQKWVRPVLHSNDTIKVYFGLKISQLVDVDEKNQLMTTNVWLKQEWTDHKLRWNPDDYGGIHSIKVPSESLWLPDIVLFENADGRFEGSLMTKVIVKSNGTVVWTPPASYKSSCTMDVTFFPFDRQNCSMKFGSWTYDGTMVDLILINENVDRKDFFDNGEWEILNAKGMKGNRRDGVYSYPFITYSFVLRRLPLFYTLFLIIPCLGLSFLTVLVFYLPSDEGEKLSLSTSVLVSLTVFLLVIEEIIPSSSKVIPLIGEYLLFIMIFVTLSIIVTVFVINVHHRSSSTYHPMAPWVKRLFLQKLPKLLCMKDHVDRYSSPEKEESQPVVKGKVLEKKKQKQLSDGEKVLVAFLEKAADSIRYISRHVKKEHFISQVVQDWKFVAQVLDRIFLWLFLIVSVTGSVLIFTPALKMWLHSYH

As for TCRSSGRYCRSPYDRRRRYCRRITDACV (modifications not checked) [αO-conotoxin GeXIVA12 (GeXIVA mature peptide isomer with disulfide bonds I-II, III-IV)], the Half-blocking dose IC50, ACh-gated current, oocyte voltage clamp in [1] came to 505 nM; in assay [2], 555 nM; in assay [7], 338 nM; in [8], 2090 nM; in [9], 412 nM; in [10], 5400 nM. Moreover, the Half-blocking dose IC50, ACh-gated current, oocyte voltage clamp in assay [11] was determined as 979 nM; in [12], 2390 nM; in [13], 258 nM; in [14], 806 nM; in [15], 415 nM. Moreover, the Half-blocking dose IC50, NMDA receptor current, oocyte voltage clamp stood at 3700 nM in assay [3], 4000 nM in assay [4], 655 nM in assay [5] and 5200 nM in [6].
